The values that follow come from PMC4476739 (PLoS ONE, 2015).

Holding throughout (assay): BLI; fortéBio Octet Red384; RSV F variant captured on motavizumab IgG loaded on anti-human Fc probes; Fab in solution 0.007 to 0.5 μM; 30°C; PBS + 1% BSA; 1:1 fit
Holding throughout (conditions): both partners purified

Experiment [1] has as its target T1, DS-Cav1 2-AB, foldon removed (Human respiratory syncytial virus A, …, S155C | S290C | S190F | V207L | L512C (stands in the printed letters) | L513C …).
T1 construct: RSV F glycoprotein, F1 subunit from its N-terminus to residue 511, with the DS (S155C-S290C) and Cav1 (S190F, V207L) mutations; RSV F α10 helix from residue 512 with rings A and B; Gly-Gly linker and LVPR of the thrombin site, left after cleavage; trimeric species purified after foldon removal; also called Rings AB; rings AB without foldon; source: Expi293F, transient transfection, purified from …

In experiment [2] the target is T2, DS-Cav1 3-BCD, foldon removed (Human respiratory syncytial virus A, …, S155C | S290C | S190F | V207L | G519C (stands in the printed letters) | K520C …).
T2 construct: RSV F glycoprotein, F1 subunit from its N-terminus to residue 511, with the DS (S155C-S290C) and Cav1 (S190F, V207L) mutations; RSV F α10 helix from residue 512 with rings B and C; added stretch that duplicates part of the coiled-coil; ring D at 533C-534C; Gly-Gly linker and LVPR of the thrombin site, left after cleavage; trimeric species purified after foldon removal; also called rings BCD …

Experiment [3] has as its target T3, DS-Cav1 4-ABCD, foldon removed (Human respiratory syncytial virus A, …, S155C | S290C | S190F | V207L | L512C (stands in the printed letters) | L513C …).
T3 construct: RSV F glycoprotein, F1 subunit from its N-terminus to residue 511, with the DS (S155C-S290C) and Cav1 (S190F, V207L) mutations; RSV F α10 helix from residue 512 with rings A, B and C; added stretch that duplicates part of the coiled-coil; ring D at 533C-534C; Gly-Gly linker and LVPR of the thrombin site, left after cleavage; trimeric species purified after foldon removal; also called Rings ABCD; …

Experiment [4] concerns the target T4, DS-Cav1 4-BCDE, foldon removed (Human respiratory syncytial virus A, …, S155C | S290C | S190F | V207L | G519C (stands in the printed letters) | K520C …).
T4 construct: RSV F glycoprotein, F1 subunit from its N-terminus to residue 511, with the DS (S155C-S290C) and Cav1 (S190F, V207L) mutations; RSV F α10 helix from residue 512 with rings B and C; added stretch based on the α10 heptad repeat; ring D at 533C-534C and ring E at 540C-541C; Gly-Gly linker and LVPR of the thrombin site, left after cleavage; trimeric species purified after foldon removal; also called …

Experiment [5] concerns the target T5, DS-Cav1 5-ABCDE, foldon removed (Human respiratory syncytial virus A, …, S155C | S290C | S190F | V207L | L512C (stands in the printed letters) | L513C …).
T5 construct: RSV F glycoprotein, F1 subunit from its N-terminus to residue 511, with the DS (S155C-S290C) and Cav1 (S190F, V207L) mutations; RSV F α10 helix from residue 512 with rings A, B and C; added stretch based on the α10 heptad repeat; ring D at 533C-534C and ring E at 540C-541C; Gly-Gly linker and LVPR of the thrombin site, left after cleavage; trimeric species purified after foldon removal; also …

B1: D25 antigen binding fragment (Fab) (Fab, V domains shown)
VH: QVQLVQSGAEVKKPGSSVMVSCQASGGPLRNYIINWLRQAPGQGPEWMGGIIPVLGTVHYAPKFQGRVTITADESTDTAYIHLISLRSEDTAMYYCATETALVVSTTYLPHYFDNWGQGTLVTVSS
VL: DIQMTQSPSSLSAAVGDRVTITCQASQDIVNYLNWYQQKPGKAPKLLIYVASNLETGVPSRFSGSGSGTDFSLTISSLQPEDVATYYCQQYDNLPLTFGGGTKVEIK
notes: Fab in solution in the Octet assays; also called site Ø-specific antibody D25
Consider B1, for which the Kd (as a rule, the free concentration of one partner at which half of the binding sites on the other are occupied at equilibrium, for simple one-to-one binding) in experiment [1] worked out at 0.21 nM; in experiment [2], 0.38 nM; in experiment [3] it was 0.32 nM; in experiment [4], 0.33 nM; in experiment [5], 0.47 nM.
